Measurements taken from paper doi:10.1101/2021.06.15.448428.

Experiments:
Experiment in all cases: co-IP
[1] = target: Pdr5*-Myc (S. cerevisiae) (UniProt P33302)
[2] = target: Ste6*-GFP (S. cerevisiae) (UniProt P12866)
Hmg2-GFP (S. cerevisiae) = Hmg2-GFP (S. cerevisiae) (UniProt P12684)

Measured: fraction bound compared to wildtype Dfm1

Chain of UniProt P33302 (P33302 whole entry): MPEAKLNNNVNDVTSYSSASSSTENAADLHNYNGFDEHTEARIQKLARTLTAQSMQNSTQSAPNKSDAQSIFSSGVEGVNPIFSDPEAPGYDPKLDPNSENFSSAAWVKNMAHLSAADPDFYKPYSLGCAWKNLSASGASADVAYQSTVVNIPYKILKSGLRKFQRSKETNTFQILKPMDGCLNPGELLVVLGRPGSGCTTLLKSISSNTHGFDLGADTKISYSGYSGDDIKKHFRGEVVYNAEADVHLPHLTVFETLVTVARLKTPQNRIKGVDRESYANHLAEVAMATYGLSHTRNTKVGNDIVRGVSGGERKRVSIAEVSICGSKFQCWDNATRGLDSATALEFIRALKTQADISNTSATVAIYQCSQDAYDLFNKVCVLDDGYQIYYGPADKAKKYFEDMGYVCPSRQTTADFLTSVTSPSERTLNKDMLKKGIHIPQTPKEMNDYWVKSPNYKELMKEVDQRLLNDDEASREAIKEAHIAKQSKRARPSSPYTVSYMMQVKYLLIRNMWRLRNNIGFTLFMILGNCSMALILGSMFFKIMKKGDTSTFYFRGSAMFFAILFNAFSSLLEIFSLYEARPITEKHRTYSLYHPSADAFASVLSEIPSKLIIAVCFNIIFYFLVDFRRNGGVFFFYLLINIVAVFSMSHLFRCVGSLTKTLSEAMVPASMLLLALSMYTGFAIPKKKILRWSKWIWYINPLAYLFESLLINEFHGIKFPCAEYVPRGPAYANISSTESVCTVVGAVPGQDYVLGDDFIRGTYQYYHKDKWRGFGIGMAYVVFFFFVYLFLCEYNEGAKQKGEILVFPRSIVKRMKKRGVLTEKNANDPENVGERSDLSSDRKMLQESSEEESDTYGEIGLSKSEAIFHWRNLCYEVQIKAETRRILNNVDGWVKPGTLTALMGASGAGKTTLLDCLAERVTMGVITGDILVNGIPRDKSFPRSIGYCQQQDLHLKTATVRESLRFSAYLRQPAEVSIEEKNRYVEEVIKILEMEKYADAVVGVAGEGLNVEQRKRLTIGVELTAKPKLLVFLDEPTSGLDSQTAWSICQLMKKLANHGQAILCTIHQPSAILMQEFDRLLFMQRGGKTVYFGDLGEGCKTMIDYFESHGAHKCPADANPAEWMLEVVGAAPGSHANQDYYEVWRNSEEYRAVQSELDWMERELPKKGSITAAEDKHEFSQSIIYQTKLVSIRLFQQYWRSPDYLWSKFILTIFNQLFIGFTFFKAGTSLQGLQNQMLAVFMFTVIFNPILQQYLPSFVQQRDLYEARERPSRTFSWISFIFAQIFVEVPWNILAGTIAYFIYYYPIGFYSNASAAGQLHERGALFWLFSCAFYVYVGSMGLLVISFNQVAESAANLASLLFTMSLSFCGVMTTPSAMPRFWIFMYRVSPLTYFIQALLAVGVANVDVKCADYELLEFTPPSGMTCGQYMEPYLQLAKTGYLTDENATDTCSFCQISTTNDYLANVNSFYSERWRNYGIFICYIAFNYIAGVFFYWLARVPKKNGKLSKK
Chain of UniProt P12684 (P12684 whole entry): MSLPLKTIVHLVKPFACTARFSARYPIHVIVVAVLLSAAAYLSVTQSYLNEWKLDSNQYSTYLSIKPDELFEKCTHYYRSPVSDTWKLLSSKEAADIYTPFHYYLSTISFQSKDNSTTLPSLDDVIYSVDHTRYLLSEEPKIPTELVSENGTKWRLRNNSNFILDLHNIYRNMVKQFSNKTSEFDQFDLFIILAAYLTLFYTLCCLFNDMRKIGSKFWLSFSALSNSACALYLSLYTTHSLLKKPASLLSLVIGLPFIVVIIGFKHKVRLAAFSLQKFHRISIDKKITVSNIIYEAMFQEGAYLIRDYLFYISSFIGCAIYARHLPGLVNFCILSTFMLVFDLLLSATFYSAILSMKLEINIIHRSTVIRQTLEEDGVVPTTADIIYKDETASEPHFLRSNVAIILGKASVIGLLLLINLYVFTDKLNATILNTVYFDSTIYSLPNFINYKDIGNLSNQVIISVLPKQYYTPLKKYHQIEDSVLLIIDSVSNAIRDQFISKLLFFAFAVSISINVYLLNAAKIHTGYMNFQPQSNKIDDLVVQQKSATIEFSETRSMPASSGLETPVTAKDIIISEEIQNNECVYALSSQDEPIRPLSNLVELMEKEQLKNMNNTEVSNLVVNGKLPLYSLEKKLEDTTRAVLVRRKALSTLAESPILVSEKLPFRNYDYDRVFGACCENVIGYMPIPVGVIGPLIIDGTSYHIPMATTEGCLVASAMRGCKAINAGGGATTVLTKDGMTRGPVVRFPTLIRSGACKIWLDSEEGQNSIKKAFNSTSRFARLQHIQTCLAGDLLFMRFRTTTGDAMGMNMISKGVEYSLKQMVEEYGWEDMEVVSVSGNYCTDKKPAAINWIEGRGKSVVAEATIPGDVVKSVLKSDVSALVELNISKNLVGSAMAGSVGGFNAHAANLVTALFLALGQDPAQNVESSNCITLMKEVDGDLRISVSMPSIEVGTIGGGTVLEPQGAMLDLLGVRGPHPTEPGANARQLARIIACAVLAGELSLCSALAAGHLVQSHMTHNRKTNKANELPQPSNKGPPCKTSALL
Chain of UniProt P12866 (P12866 whole entry): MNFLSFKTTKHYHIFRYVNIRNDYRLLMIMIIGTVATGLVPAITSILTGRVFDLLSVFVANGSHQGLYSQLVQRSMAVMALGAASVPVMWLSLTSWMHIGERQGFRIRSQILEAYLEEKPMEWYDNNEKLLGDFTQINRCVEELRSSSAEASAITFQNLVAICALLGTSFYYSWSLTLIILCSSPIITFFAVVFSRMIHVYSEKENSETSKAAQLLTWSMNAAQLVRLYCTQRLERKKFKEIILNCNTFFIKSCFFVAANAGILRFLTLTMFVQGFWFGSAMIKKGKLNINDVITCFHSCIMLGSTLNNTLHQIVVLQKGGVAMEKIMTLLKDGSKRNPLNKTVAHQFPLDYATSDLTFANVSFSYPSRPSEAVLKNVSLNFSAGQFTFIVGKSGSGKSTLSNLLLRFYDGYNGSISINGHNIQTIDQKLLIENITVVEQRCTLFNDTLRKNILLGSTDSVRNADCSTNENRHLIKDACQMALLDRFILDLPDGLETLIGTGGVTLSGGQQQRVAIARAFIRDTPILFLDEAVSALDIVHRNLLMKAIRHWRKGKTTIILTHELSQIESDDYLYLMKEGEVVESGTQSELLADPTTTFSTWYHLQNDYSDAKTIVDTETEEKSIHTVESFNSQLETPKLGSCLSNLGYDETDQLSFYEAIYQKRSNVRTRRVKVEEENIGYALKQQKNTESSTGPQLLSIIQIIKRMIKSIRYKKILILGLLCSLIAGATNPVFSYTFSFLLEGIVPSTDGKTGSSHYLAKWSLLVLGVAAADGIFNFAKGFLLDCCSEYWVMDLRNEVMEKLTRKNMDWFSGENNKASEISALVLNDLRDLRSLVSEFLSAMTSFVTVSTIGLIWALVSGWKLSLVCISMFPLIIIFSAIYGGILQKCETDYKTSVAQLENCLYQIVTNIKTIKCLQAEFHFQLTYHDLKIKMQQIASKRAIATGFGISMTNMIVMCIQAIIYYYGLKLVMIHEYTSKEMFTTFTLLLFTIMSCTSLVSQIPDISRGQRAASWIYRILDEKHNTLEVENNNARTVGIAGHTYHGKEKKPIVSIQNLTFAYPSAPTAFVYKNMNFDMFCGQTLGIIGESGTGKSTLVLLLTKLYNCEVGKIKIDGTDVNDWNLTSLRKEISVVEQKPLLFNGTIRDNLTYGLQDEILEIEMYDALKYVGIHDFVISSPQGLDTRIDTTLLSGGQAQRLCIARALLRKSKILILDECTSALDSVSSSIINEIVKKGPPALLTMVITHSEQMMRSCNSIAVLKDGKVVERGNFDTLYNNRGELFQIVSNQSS

Dfm1-5Ashp (from UniProt Q12743 1-341) (natural protein)
< 5%: all assays above
